# Assay results reported in patent US20230140797A1 (published 2023).
# T1: human FcγRIIa type R extracellular domain with C-terminal His tag (human, UniProt P12318 34-217)
# T1 sequence (looked up): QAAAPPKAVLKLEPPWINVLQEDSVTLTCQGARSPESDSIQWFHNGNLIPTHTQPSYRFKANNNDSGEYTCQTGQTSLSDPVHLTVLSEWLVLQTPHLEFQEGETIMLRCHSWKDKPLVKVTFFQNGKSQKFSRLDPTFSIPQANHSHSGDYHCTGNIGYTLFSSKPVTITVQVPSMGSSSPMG
# T2: human FcγRIIb extracellular domain with C-terminal His tag (human, UniProt P31994 43-217)
# T2 sequence (looked up): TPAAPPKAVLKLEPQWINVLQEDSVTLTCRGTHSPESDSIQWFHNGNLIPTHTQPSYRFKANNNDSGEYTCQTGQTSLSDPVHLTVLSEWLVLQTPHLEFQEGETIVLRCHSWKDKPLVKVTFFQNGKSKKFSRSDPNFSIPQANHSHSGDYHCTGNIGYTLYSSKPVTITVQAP
# T3: human FcγRIIb extracellular domain with C-terminal His tag (human, UniProt P31994 43-217)
# T3 sequence (looked up): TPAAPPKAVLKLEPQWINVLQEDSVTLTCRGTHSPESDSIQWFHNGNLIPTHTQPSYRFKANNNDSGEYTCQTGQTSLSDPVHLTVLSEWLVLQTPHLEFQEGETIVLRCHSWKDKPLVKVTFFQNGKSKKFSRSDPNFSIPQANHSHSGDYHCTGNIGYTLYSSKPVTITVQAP
# T4: human FcγRIIa type H (131His) extracellular domain with C-terminal His tag (human, UniProt P12318 34-217)
# T4 sequence (looked up): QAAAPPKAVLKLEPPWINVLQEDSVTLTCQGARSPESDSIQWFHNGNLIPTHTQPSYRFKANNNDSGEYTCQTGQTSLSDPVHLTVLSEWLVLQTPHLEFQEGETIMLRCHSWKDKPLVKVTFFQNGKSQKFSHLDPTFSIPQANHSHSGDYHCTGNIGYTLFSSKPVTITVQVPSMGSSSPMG
# What was measured:
# [1] = target: T1, human FcγRIIa type R extracellular …; assay: SPR
# [2] = target: T2, human FcγRIIb extracellular domain with …; assay: ratio of SPR KDs
# [3] = target: T2, human FcγRIIb extracellular domain with …; assay: ratio of SPR KDs; remark: listed apart in the source
# [4] = target: human FcγRIIIa type V extracellular domain with C-terminal His tag (human, UniProt P08637 17-208); assay: SPR
# human FcγRIIIa type V extracellular domain with C-terminal His tag, sequence (P08637 17-208 F176V): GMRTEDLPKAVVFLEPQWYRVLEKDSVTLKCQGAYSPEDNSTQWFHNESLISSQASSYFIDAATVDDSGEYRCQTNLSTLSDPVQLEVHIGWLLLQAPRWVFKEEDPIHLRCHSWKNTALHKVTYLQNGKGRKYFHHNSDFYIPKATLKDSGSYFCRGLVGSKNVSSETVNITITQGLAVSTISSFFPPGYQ
# [5] = target: T3, human FcγRIIb extracellular domain with …; assay: SPR
# [6] = target: T3, human FcγRIIb extracellular domain with …; assay: SPR; remark: listed apart in the source
# [7] = target: human FcγRIa extracellular domain with C-terminal His tag (human, UniProt P12314 16-292); assay: SPR
# human FcγRIa extracellular domain with C-terminal His tag, sequence (P12314 16-292): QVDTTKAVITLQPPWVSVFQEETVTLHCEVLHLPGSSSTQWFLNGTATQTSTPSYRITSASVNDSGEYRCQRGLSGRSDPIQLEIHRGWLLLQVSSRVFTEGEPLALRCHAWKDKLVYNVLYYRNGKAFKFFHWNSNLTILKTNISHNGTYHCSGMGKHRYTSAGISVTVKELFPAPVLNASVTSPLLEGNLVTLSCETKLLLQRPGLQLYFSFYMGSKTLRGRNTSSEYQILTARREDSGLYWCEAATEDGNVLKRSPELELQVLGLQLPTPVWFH
# [8] = target: T2, human FcγRIIb extracellular domain with …; assay: ratio of SPR KDs; remark: listed apart in the source
# [9] = target: T4, human FcγRIIa type H (131His) …; assay: SPR
binder,measurement,setting,value
"IL6R-BP132/IL6R-L (antibody, human IgG1, kappa) heavy: QVQLQESGPGLVKPSETLSLTCAVSGHSISHDHAWSWVRQPPGEGLEWIGFISYSGITNYNPSLQGRVTISRDNSKNTLYLQMNSLRAEDTAVYYCARSLARTTAMDYWGEGTLVTVSSASTKGPSVFPLAPSSKSTSGGTAALGCLVKDYFPEPVTVSWNSGALTSGVHTFPAVLQSSGLYSLSSVVTVPSSSLGTQTYICNVNHKPSNTKVDKKVEPKSCDKTHTCPPCPAPDLLGGDSVFLFPPKPKDTLMISRTPEVTCVVVDVSHEDPEVKFNWYVDGVEVHNAKTKPREEQYNSTYRVVSVLTVLHQDWLNGKEYKCKVSNAALPKPIEKTISKAKGQPREPQVYTLPPSRDELTKNQVSLTCLVKGFYPSDIAVEWESNGQPENNYKTTPPVLDSDGSFFLYSKLTVDKSRWQQGNVFSCSVMHEALHNHYTQESLSLSP light: not shown",Kd,[1],80 µM
"IL6R-BP498/IL6R-L (antibody, human IgG1, kappa) heavy: QVQLQESGPGLVKPSETLSLTCAVSGHSISHDHAWSWVRQPPGEGLEWIGFISYSGITNYNPSLQGRVTISRDNSKNTLYLQMNSLRAEDTAVYYCARSLARTTAMDYWGEGTLVTVSSASTKGPSVFPLAPSSKSTSGGTAALGCLVKDYFPEPVTVSWNSGALTSGVHTFPAVLQSSGLYSLSSVVTVPSSSLGTQTYICNVNHKPSNTKVDKKVEPKSCDKTHTCPPCPAPDLLGDDSVFLFPPKPKDTLMISRTPEVTCVVIDVAEEDGEVKFNWYVDGVEVHNAKTKPREEQYNSTYRVVSVLTVLHQDWLNGKEYKCKVSNKALPRPIEKTISKAKGQPREPQVYTLPPSRDELTKNQVSLTCLVKGFYPSDIAVEWESNGQPENNYKTTPLVLDSDGSFFLYSKLTVDKSRWQQGNVFSCSVMHEALHNHYTQESLSLSP light: not shown",KD (IIb) of parent polypeptide/KD (IIb) of altered polypeptide,[2],1870
same,KD (IIaR)/KD (IIb),[3],30.3
"IL6R-BP133/IL6R-L (antibody, human IgG1, kappa) heavy: QVQLQESGPGLVKPSETLSLTCAVSGHSISHDHAWSWVRQPPGEGLEWIGFISYSGITNYNPSLQGRVTISRDNSKNTLYLQMNSLRAEDTAVYYCARSLARTTAMDYWGEGTLVTVSSASTKGPSVFPLAPSSKSTSGGTAALGCLVKDYFPEPVTVSWNSGALTSGVHTFPAVLQSSGLYSLSSVVTVPSSSLGTQTYICNVNHKPSNTKVDKKVEPKSCDKTHTCPPCPAPDYLGGDSVFLFPPKPKDTLMISRTPEVTCVVVDVSHEDPEVKFNWYVDGVEVHNAKTKPREEQYNSTYRVVSVLTVLHQDWLNGKEYKCKVSNKALPKPIEKTISKAKGQPREPQVYTLPPSRDELTKNQVSLTCLVKGFYPSDIAVEWESNGQPENNYKTTPPVLDSDGSFFLYSKLTVDKSRWQQGNVFSCSVMHEALHNHYTQESLSLSP light: not shown",Kd,[4],69 µM
"IL6R-BP556/IL6R-L (antibody, human IgG1, kappa) heavy: QVQLQESGPGLVKPSETLSLTCAVSGHSISHDHAWSWVRQPPGEGLEWIGFISYSGITNYNPSLQGRVTISRDNSKNTLYLQMNSLRAEDTAVYYCARSLARTTAMDYWGEGTLVTVSSASTKGPSVFPLAPSSKSTSGGTAALGCLVKDYFPEPVTVSWNSGALTSGVHTFPAVLQSSGLYSLSSVVTVPSSSLGTQTYICNVNHKPSNTKVDKKVEPKSCDKTHTCPPCPAPELLGDDSVFLFPPKPKDTLMISRTPEVTCVVIDVGEEDGEVKFNWYVDGVEVHNAKTKPREEQDNSTYRVVSVLTVLHQDWLNGKEYKCKVSNKALPRPIEKTISKAKGQPREPQVYTLPPSRDELTKNQVSLTCLVKGFYPSDIAVEWESNGQPENNYKTTPPVLDSDGSFFLYSKLTVDKSRWQQGNVFSCSVMHEALHNHYTQESLSLSP light: not shown",KD (IIaH)/KD (IIb),[5],692
same,KD (IIaR)/KD (IIb),[6],35.4
same,Kd,[7],0.049 µM
"IL6R-BP149/IL6R-L (antibody, human IgG1, kappa) heavy: QVQLQESGPGLVKPSETLSLTCAVSGHSISHDHAWSWVRQPPGEGLEWIGFISYSGITNYNPSLQGRVTISRDNSKNTLYLQMNSLRAEDTAVYYCARSLARTTAMDYWGEGTLVTVSSASTKGPSVFPLAPSSKSTSGGTAALGCLVKDYFPEPVTVSWNSGALTSGVHTFPAVLQSSGLYSLSSVVTVPSSSLGTQTYICNVNHKPSNTKVDKKVEPKSCDKTHTCPPCPAPDYLGDDSVFLFPPKPKDTLMISRTPEVTCVVVDVSHEDPEVKFNWYVDGVEVHNAKTKPREEQDNSTYRVVSVLTVLHQDWLNGKEYKCKVSNAALPKPIEKTISKAKGQPREPQVYTLPPSRDELTKNQVSLTCLVKGFYPSDIAVEWESNGQPENNYKTTPPVLDSDGSFFLYSKLTVDKSRWQQGNVFSCSVMHEALHNHYTQESLSLSP light: not shown",Kd,[1],14 µM
"IL6R-BP535/IL6R-L (antibody, human IgG1, kappa) heavy: QVQLQESGPGLVKPSETLSLTCAVSGHSISHDHAWSWVRQPPGEGLEWIGFISYSGITNYNPSLQGRVTISRDNSKNTLYLQMNSLRAEDTAVYYCARSLARTTAMDYWGEGTLVTVSSASTKGPSVFPLAPSSKSTSGGTAALGCLVKDYFPEPVTVSWNSGALTSGVHTFPAVLQSSGLYSLSSVVTVPSSSLGTQTYICNVNHKPSNTKVDKKVEPKSCDKTHTCPPCPAPDLLGDDSVFLFPPKPKDTLMISRTPEVTCVVIDVGEEDGEVKFNWYVDGVEVHNAKTKPREEQDNSTYRVVSVLTVLHQDWLNGKEYKCKVSNKGLPRPIEKTISKAKGQPREPQVYTLPPSRDELTKNQVSLTCLVKGFYPSDIAVEWESNGQPENNYKTTPMVLDSDGSFFLYSKLTVDKSRWQQGNVFSCSVMHEALHNHYTQESLSLSP light: not shown",Kd,[7],0.0011 µM
"IL6R-BP488/IL6R-L (antibody, human IgG1, kappa) heavy: QVQLQESGPGLVKPSETLSLTCAVSGHSISHDHAWSWVRQPPGEGLEWIGFISYSGITNYNPSLQGRVTISRDNSKNTLYLQMNSLRAEDTAVYYCARSLARTTAMDYWGEGTLVTVSSASTKGPSVFPLAPSSKSTSGGTAALGCLVKDYFPEPVTVSWNSGALTSGVHTFPAVLQSSGLYSLSSVVTVPSSSLGTQTYICNVNHKPSNTKVDKKVEPKSCDKTHTCPPCPAPDLLGDDSVFLFPPKPKDTLMISRTPEVTCVVIDVAEEDGEVKFNWYVDGVEVHNAKTKPREEQDNSTYRVVSVLTVLHQDWLNGKEYKCKVSNKALPRPIEKTISKAKGQPREPQVYTLPPSRDELTKNQVSLTCLVKGFYPSDIAVEWESNGQPENNYKTTPPVLDSDGSFFLYSKLTVDKSRWQQGNVFSCSVMHEALHNHYTQESLSLSP light: not shown",KD (IIaH)/KD (IIb),[8],865
same,Kd,[9],1.8 µM
"IL6R-BP496/IL6R-L (antibody, human IgG1, kappa) heavy: QVQLQESGPGLVKPSETLSLTCAVSGHSISHDHAWSWVRQPPGEGLEWIGFISYSGITNYNPSLQGRVTISRDNSKNTLYLQMNSLRAEDTAVYYCARSLARTTAMDYWGEGTLVTVSSASTKGPSVFPLAPSSKSTSGGTAALGCLVKDYFPEPVTVSWNSGALTSGVHTFPAVLQSSGLYSLSSVVTVPSSSLGTQTYICNVNHKPSNTKVDKKVEPKSCDKTHTCPPCPAPDLLGDDSVFLFPPKPKDTLMISRTPEVTCVVIDVAEEDGEVKFNWYVDGVEVHNAKTKPREEQDNSTYRVVSVLTVLHQDWLNGKEYKCKVSNKALPAPIEKTISKAKGQPREPQVYTLPPSRDELTKNQVSLTCLVKGFYPSDIAVEWESNGQPENNYKTTPPVLDSDGSFFLYSKLTVDKSRWQQGNVFSCSVMHEALHNHYTQESLSLSP light: not shown",KD (IIb) of parent polypeptide/KD (IIb) of altered polypeptide,[2],166
"IL6R-BP491/IL6R-L (antibody, human IgG1, kappa) heavy: QVQLQESGPGLVKPSETLSLTCAVSGHSISHDHAWSWVRQPPGEGLEWIGFISYSGITNYNPSLQGRVTISRDNSKNTLYLQMNSLRAEDTAVYYCARSLARTTAMDYWGEGTLVTVSSASTKGPSVFPLAPSSKSTSGGTAALGCLVKDYFPEPVTVSWNSGALTSGVHTFPAVLQSSGLYSLSSVVTVPSSSLGTQTYICNVNHKPSNTKVDKKVEPKSCDKTHTCPPCPAPELLGDDSVFLFPPKPKDTLMISRTPEVTCVVIDVAEEDGEVKFNWYVDGVEVHNAKTKPREEQDNSTYRVVSVLTVLHQDWLNGKEYKCKVSNKALPRPIEKTISKAKGQPREPQVYTLPPSRDELTKNQVSLTCLVKGFYPSDIAVEWESNGQPENNYKTTPPVLDSDGSFFLYSKLTVDKSRWQQGNVFSCSVMHEALHNHYTQESLSLSP light: not shown",KD (IIb) of parent polypeptide/KD (IIb) of altered polypeptide,[2],1020
same,KD (IIaR)/KD (IIb),[3],38.3
"BP549 (antibody, human IgG1, kappa) heavy: QVQLQESGPGLVKPSETLSLTCAVSGHSISHDHAWSWVRQPPGEGLEWIGFISYSGITNYNPSLQGRVTISRDNSKNTLYLQMNSLRAEDTAVYYCARSLARTTAMDYWGEGTLVTVSSASTKGPSVFPLAPSSKSTSGGTAALGCLVKDYFPEPVTVSWNSGALTSGVHTFPAVLQSSGLYSLSSVVTVPSSSLGTQTYICNVNHKPSNTKVDKKVEPKSCDKTHTCPPCPAPELLGDDSVFLFPPKPKDTLMISRTPEVTCVVVDVGEEDGEVKFNWYVDGVEVHNAKTKPREEQYNSTYRVVSVLTVLHQDWLNGKEYKCKVSNKALPRPIEKTISKAKGQPREPQVYTLPPSRDELTKNQVSLTCLVKGFYPSDIAVEWESNGQPENNYKTTPPVLDSDGSFFLYSKLTVDKSRWQQGNVFSCSVMHEALHNHYTQESLSLSP light: not shown",KD (IIaH)/KD (IIb),[5],696
same,KD (IIaR)/KD (IIb),[6],35.9
same,Kd,[7],1.8 µM
